Results published in the Human Domainome abundance scans (Beltran et al. 2025).
± gives the uncertainty stated by the source.

B1: Ankyrin repeat and SOCS box protein 14, residues 532 to 572; numbered along this chain, A6NK59 (parent)
chain: RSLKHLCRLKIRKCMGRLHLRCPVFMSFLPLPNRLKAYVLY

Variants of: B1
Assay: abundance fitness (aPCA) (normalised: wild type 0, dead -1); higher = more abundant; growth selection in yeast, the domain comes from the species named
Conditions: Homo sapiens

Variant | abundance fitness
RSLKHLCRLKIRKCMGRLHLRCPVFMDFLPLPNRLKAYVLY [S27D] | -0.054 ± 0.1
RSLKHLCRLKIRKCMGRLHLRCPVFMEFLPLPNRLKAYVLY [S27E] | -0.006 ± 0.057
RSLKHLCRLKIRKCMGRLHLRCPVFMGFLPLPNRLKAYVLY [S27G] | -0.075 ± 0.049
RSLKHLCRLKIRKCMGRLHLRCPVFMKFLPLPNRLKAYVLY [S27K] | 0.078 ± 0.13
RSLKHLCRLKIRKCMGRLHLRCPVFMLFLPLPNRLKAYVLY [S27L] | -1.09 ± 0.14
RSLKHLCRLKIRKCMGRLHLRCPVFMMFLPLPNRLKAYVLY [S27M] | -0.892 ± 0.15
RSLKHLCRLKIRKCMGRLHLRCPVFMNFLPLPNRLKAYVLY [S27N] | 0.019 ± 0.16
RSLKHLCRLKIRKCMGRLHLRCPVFMPFLPLPNRLKAYVLY [S27P] | -0.386 ± 0.071
RSLKHLCRLKIRKCMGRLHLRCPVFMQFLPLPNRLKAYVLY [S27Q] | -0.085 ± 0.051
RSLKHLCRLKIRKCMGRLHLRCPVFMRFLPLPNRLKAYVLY [S27R] | 0.042 ± 0.051
RSLKHLCRLKIRKCMGRLHLRCPVFMTFLPLPNRLKAYVLY [S27T] | -0.247 ± 0.07
RSLKHLCRLKIRKCMGRLHLRCPVFMVFLPLPNRLKAYVLY [S27V] | -0.709 ± 0.15
RSLKHLCRLKIRKCMGRLHLRCPVFMWFLPLPNRLKAYVLY [S27W] | -0.156 ± 0.061
RSLKHLCRLKIRKCMGRLHLRCPVFMYFLPLPNRLKAYVLY [S27Y] | -1.05 ± 0.26
RSLKHLCRLKIRKCMGRLHLRCPVFMSALPLPNRLKAYVLY [F28A] | -0.228 ± 0.052
RSLKHLCRLKIRKCMGRLHLRCPVFMSCLPLPNRLKAYVLY [F28C] | -0.198 ± 0.06
RSLKHLCRLKIRKCMGRLHLRCPVFMSDLPLPNRLKAYVLY [F28D] | -0.056 ± 0.067
RSLKHLCRLKIRKCMGRLHLRCPVFMSELPLPNRLKAYVLY [F28E] | 0.27 ± 0.13
RSLKHLCRLKIRKCMGRLHLRCPVFMSHLPLPNRLKAYVLY [F28H] | 0.199 ± 0.11
RSLKHLCRLKIRKCMGRLHLRCPVFMSILPLPNRLKAYVLY [F28I] | 0.001 ± 0.07
RSLKHLCRLKIRKCMGRLHLRCPVFMSKLPLPNRLKAYVLY [F28K] | 0.221 ± 0.046

Variant | abundance fitness
RSLKHLCRLKIRKCMGRLHLRCPVFMSLLPLPNRLKAYVLY [F28L] | 0.128 ± 0.055
RSLKHLCRLKIRKCMGRLHLRCPVFMSMLPLPNRLKAYVLY [F28M] | -0.127 ± 0.097
RSLKHLCRLKIRKCMGRLHLRCPVFMSNLPLPNRLKAYVLY [F28N] | 0.005 ± 0.13
RSLKHLCRLKIRKCMGRLHLRCPVFMSPLPLPNRLKAYVLY [F28P] | -0.322 ± 0.088
RSLKHLCRLKIRKCMGRLHLRCPVFMSQLPLPNRLKAYVLY [F28Q] | 0.066 ± 0.065
RSLKHLCRLKIRKCMGRLHLRCPVFMSRLPLPNRLKAYVLY [F28R] | 0.104 ± 0.051
RSLKHLCRLKIRKCMGRLHLRCPVFMSSLPLPNRLKAYVLY [F28S] | -0.05 ± 0.075
RSLKHLCRLKIRKCMGRLHLRCPVFMSTLPLPNRLKAYVLY [F28T] | -0.237 ± 0.061
RSLKHLCRLKIRKCMGRLHLRCPVFMSVLPLPNRLKAYVLY [F28V] | -0.156 ± 0.047
RSLKHLCRLKIRKCMGRLHLRCPVFMSWLPLPNRLKAYVLY [F28W] | 0.177 ± 0.052
RSLKHLCRLKIRKCMGRLHLRCPVFMSYLPLPNRLKAYVLY [F28Y] | -0.01 ± 0.12
RSLKHLCRLKIRKCMGRLHLRCPVFMSFAPLPNRLKAYVLY [L29A] | -0.356 ± 0.053
RSLKHLCRLKIRKCMGRLHLRCPVFMSFDPLPNRLKAYVLY [L29D] | -0.435 ± 0.087
RSLKHLCRLKIRKCMGRLHLRCPVFMSFEPLPNRLKAYVLY [L29E] | -0.672 ± 0.093
RSLKHLCRLKIRKCMGRLHLRCPVFMSFFPLPNRLKAYVLY [L29F] | -0.473 ± 0.11
RSLKHLCRLKIRKCMGRLHLRCPVFMSFGPLPNRLKAYVLY [L29G] | -0.349 ± 0.052
RSLKHLCRLKIRKCMGRLHLRCPVFMSFIPLPNRLKAYVLY [L29I] | -0.037 ± 0.12
RSLKHLCRLKIRKCMGRLHLRCPVFMSFKPLPNRLKAYVLY [L29K] | -0.299 ± 0.076
RSLKHLCRLKIRKCMGRLHLRCPVFMSFMPLPNRLKAYVLY [L29M] | -0.618 ± 0.21
RSLKHLCRLKIRKCMGRLHLRCPVFMSFPPLPNRLKAYVLY [L29P] | -0.342 ± 0.06
RSLKHLCRLKIRKCMGRLHLRCPVFMSFSPLPNRLKAYVLY [L29S] | -0.258 ± 0.065

Variant | abundance fitness
RSLKHLCRLKIRKCMGRLHLRCPVFMSFTPLPNRLKAYVLY [L29T] | -0.455 ± 0.099
RSLKHLCRLKIRKCMGRLHLRCPVFMSFVPLPNRLKAYVLY [L29V] | -0.353 ± 0.057
RSLKHLCRLKIRKCMGRLHLRCPVFMSFYPLPNRLKAYVLY [L29Y] | -0.53 ± 0.48
RSLKHLCRLKIRKCMGRLHLRCPVFMSFLALPNRLKAYVLY [P30A] | 0.417 ± 0.042
RSLKHLCRLKIRKCMGRLHLRCPVFMSFLCLPNRLKAYVLY [P30C] | 0.197 ± 0.053
RSLKHLCRLKIRKCMGRLHLRCPVFMSFLDLPNRLKAYVLY [P30D] | 0.325 ± 0.061
RSLKHLCRLKIRKCMGRLHLRCPVFMSFLELPNRLKAYVLY [P30E] | 0.4 ± 0.053
RSLKHLCRLKIRKCMGRLHLRCPVFMSFLFLPNRLKAYVLY [P30F] | -0.182 ± 0.071
RSLKHLCRLKIRKCMGRLHLRCPVFMSFLGLPNRLKAYVLY [P30G] | 0.337 ± 0.047
RSLKHLCRLKIRKCMGRLHLRCPVFMSFLILPNRLKAYVLY [P30I] | -0.217 ± 0.065
RSLKHLCRLKIRKCMGRLHLRCPVFMSFLLLPNRLKAYVLY [P30L] | 0.151 ± 0.048
RSLKHLCRLKIRKCMGRLHLRCPVFMSFLMLPNRLKAYVLY [P30M] | 0.26 ± 0.068
RSLKHLCRLKIRKCMGRLHLRCPVFMSFLRLPNRLKAYVLY [P30R] | 0.485 ± 0.043
RSLKHLCRLKIRKCMGRLHLRCPVFMSFLSLPNRLKAYVLY [P30S] | 0.424 ± 0.043
RSLKHLCRLKIRKCMGRLHLRCPVFMSFLTLPNRLKAYVLY [P30T] | 0.313 ± 0.06
RSLKHLCRLKIRKCMGRLHLRCPVFMSFLVLPNRLKAYVLY [P30V] | -0.009 ± 0.047
RSLKHLCRLKIRKCMGRLHLRCPVFMSFLYLPNRLKAYVLY [P30Y] | -0.067 ± 0.087
RSLKHLCRLKIRKCMGRLHLRCPVFMSFLPAPNRLKAYVLY [L31A] | -0.272 ± 0.054
RSLKHLCRLKIRKCMGRLHLRCPVFMSFLPDPNRLKAYVLY [L31D] | -0.256 ± 0.16
RSLKHLCRLKIRKCMGRLHLRCPVFMSFLPEPNRLKAYVLY [L31E] | -0.846 ± 0.11
